Values of other authors in patent US20260007686A1, “COMPOSITIONS AND METHODS FOR IMPROVING VISION” (Ripple Therapeutics Corporation, priority 2022, published 2026).

Legend:
[1] = tested on: visual acuity of individuals with diabetic macular edema (DME); conditions: literature studies (Boyer et al.; Callanan et al.)
[2] = tested on: macular edema in individuals with diabetic macular edema (DME); conditions: literature studies (Boyer et al.; Callanan et al.)

B1: ranibizumab (antibody, chains of the INN, looked up, V domains shown)
VH: EVQLVESGGGLVQPGGSLRLSCAASGYDFTHYGMNWVRQAPGKGLEWVGWINTYTGEPTYAADFKRRFTFSLDTSKSTAYLQMNSLRAEDTAVYYCAKYPYYYGTSHWYFDVWGQGTLVTVSS
VL: DIQLTQSPSSLSASVGDRVTITCSASQDISNYLNWYQQKPGKAPKVLIYFTSSLHSGVPSRFSGSGSGTDFTLTISSLQPEDFATYYCQQYSTVPWTFGQGTKVEIK
modifications: Fab
notes: ranibizumab injection, a clinically approved anti-VEGF intravitreal injection
[1]; month 3
  Mean Change in BCVA at M3: +6 letters
[1]; month 6
  Mean Change in BCVA at M6: +8 letters
[2]; month 3
  Mean Change in CST at M3: −140 μm
[2]; month 6
  Mean Change in CST at M6: −133 μm
